This note sets out measurements from patent publication US20150140022A1 (FRAUNHOFER GESELLSCHAFT ZUR FOERDERUNG DER ANGEWANDTEN …, published 2015).

Assay [1] addresses T1, CD30 (human, UniProt P28908 19-595).
T1 construct: whole, on cells; Endogenous antigen on L540 cells
T1 sequence (looked up): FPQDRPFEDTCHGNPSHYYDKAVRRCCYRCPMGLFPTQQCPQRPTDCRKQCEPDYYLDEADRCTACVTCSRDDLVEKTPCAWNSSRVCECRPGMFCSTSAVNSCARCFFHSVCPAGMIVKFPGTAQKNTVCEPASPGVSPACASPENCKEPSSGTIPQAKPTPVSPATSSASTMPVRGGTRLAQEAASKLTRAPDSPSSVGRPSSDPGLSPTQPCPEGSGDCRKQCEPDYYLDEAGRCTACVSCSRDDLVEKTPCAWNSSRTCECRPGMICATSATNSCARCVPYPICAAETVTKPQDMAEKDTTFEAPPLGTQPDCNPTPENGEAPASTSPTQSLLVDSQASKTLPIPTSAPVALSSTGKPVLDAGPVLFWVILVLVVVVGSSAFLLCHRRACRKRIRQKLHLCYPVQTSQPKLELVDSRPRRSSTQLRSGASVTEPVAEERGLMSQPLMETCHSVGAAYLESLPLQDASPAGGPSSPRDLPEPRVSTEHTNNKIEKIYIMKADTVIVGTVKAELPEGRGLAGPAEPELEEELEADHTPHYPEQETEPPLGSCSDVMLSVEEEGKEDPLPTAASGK
In words: flow cytometry on L540 cells (lacking EGFR but expressing CD30), anti-His Alexa 488 detection. (A flow cytometer gives signals particle by particle.)

Assay [2] has as its target T1, CD30. In words: flow cytometry on L540 cells (CD30+, EGFR-), direct fluorescence. The procedure:
Flow cytometry analysis was carried out after incubating 4×10⁵ cells with each fusion protein for 20 min at […] in PBS. […] As a control, scFv-Ki4-SNAP was labeled with BG-VistaGreen (black curve) and its binding activity was tested against A431, L540 and CHO-K1 cells (filled gray curves). […] As a control, scFv-Ki4-SNAP labeled with BG-Ce6 (black curve) was tested against A431, L540 and CHO-K1 cells (filled gray curves).
The binding efficiency of the labeled and unlabeled fusion proteins was determined by flow cytometry using a FACSCalibur (Becton & Dickinson, Heidelberg, Germany) and CellQuest software. […] Approximately 4×10⁵ cells were incubated in 200 μL PBS containing 0.5 μg of labeled protein for 20 min on ice. The cells were then washed twice with 1.8 mL PBS in a conventional cell washer and analyzed by flow cytometry.

B1: scFv-425-SNAP (scFv)
scFv: MAQVQLQQSGAELVKPGASVKLSCKASGYTFTSHWMHWVKQRAGQGLEWIGEFNPSNGRTNYNEKFKSKATLTVDKSSSTAYMQLSSLTSEDSAVYYCASRDYDYDGRYFDYWGQGTTVTVSSGGGGSGGGGSGGGGSDIELTQSPAIMSASPGEKVTMTCSASSSVTYMYWYQQKPGSSPRLLIYDTSNLASGVPVRFSGSGSGTSYSLTISRMEAEDAATYYCQQWSSHIFTFGSGTELEIKRHHHHHH
notes: Secreted from HEK-293T cells by an Ig kappa leader and purified by its His6 tag; not shown: SNAP-tag (hAGTm, modified human O6-alkylguanine-DNA alkyltransferase, 20 kDa)
On to B1, for which, in the assay with CD30 [1], the binding result is “no binding (tested: 0.5 µg/ml)”.

B2: scFv-425-SNAP-Ce6 (scFv)
scFv: MAQVQLQQSGAELVKPGASVKLSCKASGYTFTSHWMHWVKQRAGQGLEWIGEFNPSNGRTNYNEKFKSKATLTVDKSSSTAYMQLSSLTSEDSAVYYCASRDYDYDGRYFDYWGQGTTVTVSSGGGGSGGGGSGGGGSDIELTQSPAIMSASPGEKVTMTCSASSSVTYMYWYQQKPGSSPRLLIYDTSNLASGVPVRFSGSGSGTSYSLTISRMEAEDAATYYCQQWSSHIFTFGSGTELEIKRHHHHHH
modifications: chlorin e6 through a benzyl-PEG24 linker (BG-PEG24-Ce6) covalently coupled to the active site of the SNAP-tag
notes: not shown: SNAP-tag (hAGTm)
As to B2, the binding result with CD30 [2] is listed as “no binding (tested: 0.5 µg of labeled protein in 200 µL)”.

B3: scFv-425-SNAP-VistaGreen (scFv)
scFv: MAQVQLQQSGAELVKPGASVKLSCKASGYTFTSHWMHWVKQRAGQGLEWIGEFNPSNGRTNYNEKFKSKATLTVDKSSSTAYMQLSSLTSEDSAVYYCASRDYDYDGRYFDYWGQGTTVTVSSGGGGSGGGGSGGGGSDIELTQSPAIMSASPGEKVTMTCSASSSVTYMYWYQQKPGSSPRLLIYDTSNLASGVPVRFSGSGSGTSYSLTISRMEAEDAATYYCQQWSSHIFTFGSGTELEIKRHHHHHH
modifications: BG-Vista Green dye covalently coupled to the active site of the SNAP-tag
notes: not shown: SNAP-tag (hAGTm)
For B3, the binding result in the assay with CD30 [2] is listed as “no binding (tested: 0.5 µg of labeled protein in 200 µL)”.
